Test results reported in the nanobody polyreactivity screen of Harvey et al. (2022).

Assay: yeast display, Sf9 membrane polyspecificity reagent, FACS + sequencing; frameworks hold sequencing errors
Method in brief: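 Galactose-induced (36–48 hours) yeast carrying a synthetic nanobody display library were exposed to 10% biotinylated, detergent-solubilized Sf9 membrane reagent at 4 °C for 1 hour. FACS followed streptavidin microbead enrichment, using low and high (top ~1%) gates for expression (anti-HA) and reagent binding (streptavidin). Colony PCR, MiSeq 2 × 250 sequencing and CDR-length filtering followed. Labels for polyreactivity reflect the gate of origin.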

Row | Sequence | polyreactivity (PSR sort gate)
1 | QVQLVESGGGLVQAGGSLRLSCAASGSTFRTYAMGWYRQAPGKERELVASIDSTGSTNYADSVKGRFTISRDNAKNTVYLQMNSLKPEDTAVYYCAAETYSYPPFYAYDYWGQGTQVTVSS | low polyreactivity
2 | QVQLVESGGGLVQAGGSLRLSCAASGSTFRVNAMGWYRQAHGKEREFVAGISFGGGSTYYADSVKGRFTISRDNAKNTVYFQMNSLKPEDTADYYCNARGKGSGAVRYNYWGQGTLVTVSS | high polyreactivity
3 | QVQLVESGGGLVQAGGSLRLSCAASGSTFRVNAMGWYRQAPGKERELVAAISYRGGSTYYADSVKGRFTISRDNAKNTVYLQMNNLKPEDTAVYYCNADLKRRTYGPDSYYWGQGTQVTVSS | high polyreactivity
4 | QVQLVESGGGLVQAGGSLRLSCAASGSTFRVNDMGWYRQAPGKESEFVAGISWSGGSTYYADSVKGRFTISRDNAKNTVYLQMNTLKPEETAVYYCAADGYGQGNNRNYNYGGQGTQVTVSS | low polyreactivity
5 | QVQLVESGGGLVQAGGSLRLSCAASGSTFRVYAMGWYRQAPGKERELVAAISGSGGSTYYADSVKGRFTISRDNAKNTVSLQMNSMKPEDTAVYYCAARSWYTEYYWGQGTQVTVSS | high polyreactivity
6 | QVQLVESGGGLVQAGGSLRLSCAASGSTFRVYAMGWYRQAPGKERELVAAISRSGSITYYADSVKGRFTISRDNAKNTVYLQMNSLKPEDTAVYYCAARTYSRFTASTYYYWGQGTQVTVSS | high polyreactivity
7 | QVQLVESGGGLVQAGGSLRLSCAASGSTFRWNTMGWDRQAPGKEREMVAAISYSGGITYYADSVKGRFTISRDNAKNTVYLQMNSLKPEDTAVYYCNLVAYRSYLSSYDYWGQGTQVTVSS | high polyreactivity
8 | QVQLVESGGGLVQAGGSLRLSCAASGSTFRWYAMGWYRQAPGKERELVAAITSSGSTYYADSVKGRFTISRDNAKNTVYLQMNSLKPEDTAVYYCAARANGYWNTYEHDYWGQGIQVTVSS | low polyreactivity
9 | QVQLVESGGGLVQAGGSLRLSCAASGSTFRWYTMGWYRQATGKERDLVAAINQSGSRTYYADSVKGRFTISRDNAKNTVYLQMNSLKPEDTAVYYCNAKSYKSPHTYYYWGQGTQVTVSS | high polyreactivity
10 | QVQLVESGGGLVQAGGSLRLSCAASGSTFRYNAMGWYRQAPGKERELVAAINRGGGTDYADSVKGRFTISRDNAKNTVYLQMNSLKPEDTAVYYCNATTGYGGYNYWGQGTQVTVSS | low polyreactivity
11 | QVQLVESGGGLVQAGGSLRLSCAASGSTFRYNAMGWYRQAPGKERELVAAITGSGDRTFYADSVKGRFTISRDNAKNTVYLQMNSLKPEDTAVYYCAARSRYPFSYGYYYWGQGTQVTVSS | high polyreactivity
12 | QVQLVESGGGLVQAGGSLRLSCAASGSTFRYNAMGWYRQAPGKERELVAAITSGGGTNYADSVKGRFTISRDNAKNTVYLQMNSLKPEDTAVYYCAAGAWRGPYSGYYYWGQGTQVTVSS | low polyreactivity
13 | QVQLVESGGGLVQAGGSLRLSCAASGSTFRYNAMGWYRQAPGKERELVAAITSGGTTNYADSVKGRFTISRDNAKNTVYLQMNSLKPEDTAVYYCAKKRPGFLRYGSIGEFQYDYWGQGTQVTVSS | low polyreactivity
14 | QVQLVESGGGLVQAGGSLRLSCAASGSTFRYNAMGWYRQAPGKERELVASINRGGGGTYYADSVKGRFTISRDNAKKTVYLQMNSLKPEDTAVYYCAKARFTRGTWFYYWGQGTQVTVSS | high polyreactivity
15 | QVQLVESGGGLVQAGGSLRLSCAASGSTFRYNAMGWYRQAPGKERELVASITWSGGDTYYADSVKGRFTISRDNAKNTVYLQMNSLKPEDTAVYYCAKKGYASRYFIYDYWGQGTQVTVSS | low polyreactivity
16 | QVQLVESGGGLVQAGGSLRLSCAASGSTFRYNTMGWYRQAPGKEREFVAAISQSGGSTYYADSVKGRFTISRDNAKNTVYLQMNSLKPEDTAVYYCNARPFYATYRYRGYSWGQGTQVTVSS | high polyreactivity
17 | QVQLVESGGGLVQAGGSLRLSCAASGSTFRYNTMGWYRQAPGKERELVAAINISSSSTYYADSVKGRFTISRDNAKNTVYLQMNSLKPEDTAVYYCANRDYVPIATDENDDYWGQGTQVTVSS | low polyreactivity
18 | QVQLVESGGGLVQAGGSLRLSCAASGSTFRYYAKGWYRQAPGKERELVAAIAAGSNTNYADSVKGRFTISRDNAKNTVYLQMNSVKPEDTAVFYCAVASYARVQYEYWGQGTQVTVNS | low polyreactivity
19 | QVQLVESGGGLVQAGGSLRLSCAASGSTFRYYAMAWYREAPGKERELVAAISRRGGSTYYADSVKGRFTISRDNAKNTVYLQMNSLIPEDTAVYYCNAAASTFTSWIRGPGVCYDYWGQGTQVTVSS | high polyreactivity
20 | QVQLVESGGGLVQAGGSLRLSCAASGSTFRYYAMGWYRHAPGKDRELVAAISGSGGRTYYADSVKGRFTISRDNAKNTVYLQMNSLKPEDTAVYYCNTRGRRTDYDYWGQGTQVTVSS | high polyreactivity
21 | QVQLVESGGGLVQAGGSLRLSCAASGSTFRYYAMGWYRQAPGKEREFVAAISWSGSSTYYADSVKGRFTISRDNAKNTVYLQMNSLKPEDTAVYYCAARYRYRSSSYDYWGQGTQVTVSS | high polyreactivity
22 | QVQLVESGGGLVQAGGSLRLSCAASGSTFRYYAMGWYRQAPGKERELVAAINSGGSTYYADSVKGRFTISRDNAKNTVYLQMNSLKPEDTAVYYCAAYYFWYLYWGQGTQVTVSS | high polyreactivity

Row | Sequence | polyreactivity (PSR sort gate)
23 | QVQLVESGGGLVQAGGSLRLSCAASGSTFRYYAMGWYRQAPGKERELVAAITRGDSTNYADSVKGRFTISRDNAKNTVYLQMNSLKPEDTAVYYCNAGDGPDEEYDYWGQGTQVTVSS | low polyreactivity
24 | QVQLVESGGGLVQAGGSLRLSCAASGSTFRYYVMGWYRQAPGKERELVARITSAASTNYADSVKGRFTISRDNAKNTVYLQMNSLKPEDTAVYYCAARKYGSRYRLKYDYWGQGTQVTVSS | high polyreactivity
25 | QVQLVESGGGLVQAGGSLRLSCAASGSTFSANAMGWYRQAPGKERELVAAITYRGGNTYYADSVKGRFTISRDNAKNTVYLQLNSLKPEDTAVYYCNRDLRVRYRRLKYGYWGQGTQVTVSS | low polyreactivity
26 | QVQLVESGGGLVQAGGSLRLSCAASGSTFSANAMGWYRQAPGKERELVADISTGGSTKYADSVKGRFTISRDNAKNTVYLQMNSLKPEDTAVYYCAARRRWARGSAIRGYWGQGTQVTVSS | high polyreactivity
27 | QVQLVESGGGLVQAGGSLRLSCAASGSTFSANTKGWYRQAPGTERELVAGITNTGDTYYADSVKGRFTISRDNAKNTVYLQMNSLKPEDTAVYYCAADSWRRTDGAYWSTVYYWGQGTQVTVSS | low polyreactivity
28 | QVQLVESGGGLVQAGGSLRLSCAASGSTFSDNAMGGYRQAPGKERELVAAINETGGSTYYADSVKGRFTISRDNAKNTVYLQMNSLKPEDTAVYYCNADIDPYGATYAIEYDYWGQGTQVTVSS | low polyreactivity
29 | QVQLVESGGGLVQAGGSLRLSCAASGSTFSDNAMGWYRQAPGKEREFVAAINETGGSTYYADSVKGRFTISRDNAKNTVYVQMNSLKPEDTAVYYCNADIDPYGATYAIEYDYWGQGTQVTVSS | low polyreactivity
30 | QVQLVESGGGLVQAGGSLRLSCAASGSTFSDNAMGWYRQAPGKERELVAAITSGGSTYYADSVKGRFTISRDNAKNTVYLQMNSLKPEDTAVYYCAADYWGQGTQVTVSS | low polyreactivity
31 | QVQLVESGGGLVQAGGSLRLSCAASGSTFSDYAMGWYRQAPGKERELVAAISRRGGSTYYADSVKGRFTISRDNAKNTVYLQMNSLKPEDTAVYYCAKAAYPWTRMEYWGQGTQVTVSS | high polyreactivity
32 | QVQLVESGGGLVQAGGSLRLSCAASGSTFSDYVMGWYRQAPGKERELVAAISWSGDRTYYADSVKGRFTISRDNAKNTFYLQMNSLKPEDTAVYYCAAEYAPSDPSYYYGYDYWGQGTQVTVSS | high polyreactivity
33 | QVQLVESGGGLVQAGGSLRLSCAASGSTFSENAMGWYRQAPGKERELVAAISWGGGSTYYADSVKGRFTISRDYAKNTVYLQMNSLKPEDTAVYYCNADVFDDYGYFESDYWGQGTQVTVSS | low polyreactivity
34 | QVQLVESGGGLVQAGGSLRLSCAASGSTFSFNAMGWYRQAPGKERELVAAIRWSGGSTYYADSVKGRFTISRDNAKNTVYLQMNSLKPEDTAVYYCATYWKGGRPPYRYYYWGQGTQVTVSS | high polyreactivity
35 | QVQLVESGGGLVQAGGSLRLSCAASGSTFSFNDMGWYRQAPGKERELVADISWSGDTTYADSVKGRFTISRDNAKKTVYLQMNSLKPEDTGVYYCDADRHRYQGYTYDYWGQGTQVTVSS | high polyreactivity
36 | QVQLVESGGGLVQAGGSLRLSCAASGSTFSFYAMGWYRQAPGKERELVAAIRAGTRTYYADSVKGRFTISRDNAKNTVYLQMNSLKPEDTAVYYCAATRRRYPYYYWGQGTQVTVSS | high polyreactivity
37 | QVQLVESGGGLVQAGGSLRLSCAASGSTFSGYAMGWYRQAPGKEREFVATISISGGSTYYADSVKGRFTISRDNAKNTVYLQMNSLKPEDTAVYYCNADYYFSWGSIVDYWGQGTQVTVSS | low polyreactivity
38 | QVQLVESGGGLVQAGGSLRLSCAASGSTFSGYAMGWYRQAPGKERELVAAISYSGGGTYYEDSVKGRFTISRDNAKNTVYLQMNSLKPEDTAVYYCATLGSLRYYWPGYDYWGQGTQVTVSS | low polyreactivity
39 | QVQLVESGGGLVQAGGSLRLSCAASGSTFSGYAMGWYSQAPGKERELVAAISWSGGRTYYADSVNGRFTISRDNAKNTVYLQMNSLKPEDTAVYYCDAVRKSAYEYWGQGTQVTVSS | high polyreactivity
40 | QVQLVESGGGLVQAGGSLRLSCAASGSTFSIYAMGWYRQAPGKERELVAAITSDGSTYYADSVKGRFTISRDNAKNTVYLQMNSLKPEDTAVYYCAADWWYGWVSYEYWGQGTQVTVSS | high polyreactivity
41 | QVQLVESGGGLVQAGGSLRLSCAASGSTFSKNAMGWYRPAPGKERELVAAIRSRGGSTYYADSVKGRFTISRDNAKNTVYLQMNSLKPEDTAVYYCAAQYFWYVYSYDYWGQGTQVTVSS | high polyreactivity
42 | QVQLVESGGGLVQAGGSLRLSCAASGSTFSKYAMGWYRQAPGKERELEAAITRTGGRTYYADSVKGRFTISRDNANNTVYLQMNSLKPEDTAVYYCAASATFWGQGTQVTVSS | high polyreactivity
43 | QVQLVESGGGLVQAGGSLRLSCAASGSTFSKYAMGWYRQAPGKERELVAAINYGGTSTYYADSVKGRFTISRDNAKNTVYLQMNSLKPEDTAVYYCAVIYRRLYTGGQNPYDYWGQGTQVTVSS | high polyreactivity
